This experiment concerns the target truncated form of ribosomal protein L2 (E. coli) (UniProt P60422). Description: ELISA. A general note: An ELISA detects its analyte on a solid surface through an enzyme-linked reagent.

DnaAΔ129 lacking the N-terminal 129 residues, sequence (P03004 130-467, stated change not applied): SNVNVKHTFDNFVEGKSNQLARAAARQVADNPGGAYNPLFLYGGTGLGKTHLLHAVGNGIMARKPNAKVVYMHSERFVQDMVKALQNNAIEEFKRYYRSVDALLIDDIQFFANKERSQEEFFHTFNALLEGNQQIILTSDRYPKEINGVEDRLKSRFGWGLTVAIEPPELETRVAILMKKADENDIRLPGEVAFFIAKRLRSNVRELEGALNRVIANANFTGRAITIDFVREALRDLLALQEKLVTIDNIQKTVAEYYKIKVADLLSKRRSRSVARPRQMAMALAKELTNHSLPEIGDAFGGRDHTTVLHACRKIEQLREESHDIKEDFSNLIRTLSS

The substance “DnaAΔ129 lacking the N-terminal 129 residues (from UniProt P03004 130-467) (domain or fragment)” registered a fold reduction of the interaction against wild-type DnaA of 4 fold.

The values above are taken from article PMC3105425.
